Results as given in patent US20250136710A1 (published 2025).
Positions count from the first letter of the chain named. Where two headings read alike, the source gives them in different places.

What was measured:
Assay in all cases: FACS
[1] = molecular target: T1, cynomolgus TIGIT (cynomolgus macaque, UniProt A0A7N9I9V4 89-209)
[2] = molecular target: T2, TIGIT (human, UniProt Q495A1 22-141)
T2 chain: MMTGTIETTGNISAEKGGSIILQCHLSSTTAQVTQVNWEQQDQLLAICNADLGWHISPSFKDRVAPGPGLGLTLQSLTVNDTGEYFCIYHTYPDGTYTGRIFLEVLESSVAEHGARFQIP

[3] = molecular target: T1, cynomolgus TIGIT; remark: listed apart in the source
[4] = molecular target: T2, TIGIT
[5] = molecular target: T3, mouse TIGIT (mouse, UniProt P86176 29-148)
T3 chain: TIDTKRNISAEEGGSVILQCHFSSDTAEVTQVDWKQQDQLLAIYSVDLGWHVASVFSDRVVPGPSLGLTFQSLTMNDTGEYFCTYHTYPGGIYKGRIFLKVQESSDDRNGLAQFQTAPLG

[6] = molecular target: T4, cynomolgus macaque PVRIG expressed on HEK293 cells (cynomolgus macaque, UniProt A0A2K5WVV8 1-322)
T4 chain: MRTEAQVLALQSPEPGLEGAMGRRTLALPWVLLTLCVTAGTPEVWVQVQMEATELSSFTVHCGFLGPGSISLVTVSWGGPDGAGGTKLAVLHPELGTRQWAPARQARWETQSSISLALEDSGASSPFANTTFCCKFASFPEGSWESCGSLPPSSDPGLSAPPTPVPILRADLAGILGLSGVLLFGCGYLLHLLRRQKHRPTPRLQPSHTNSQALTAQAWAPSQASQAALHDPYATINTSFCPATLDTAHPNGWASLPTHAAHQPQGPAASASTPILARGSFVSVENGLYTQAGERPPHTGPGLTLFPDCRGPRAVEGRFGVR

[7] = molecular target: T4, cynomolgus macaque PVRIG expressed on …

T1 sequence (A0A7N9I9V4 entry or part of it): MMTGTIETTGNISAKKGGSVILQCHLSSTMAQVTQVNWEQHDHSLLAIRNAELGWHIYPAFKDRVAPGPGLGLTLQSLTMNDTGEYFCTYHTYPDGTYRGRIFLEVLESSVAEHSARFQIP

B1: BM26 (antibody, V domains shown)
VH: EVQLQQSGPELVKPGSSVKMSCKASGYTFSSYVMHWVKQKPGQGLEWIGYIDPYNDGAKYNEKFKGKATLTSDKSSSTAYMELSSLTSEDSAVYYCARGGPYGWYFDVWGAGTTVTVSS
VL: DIQMTQSPASLSASVGETVTITCRASEHIYSYLSWYQQKQGKSPQLLVYNAKTLAEGVPSRFSGSGSGTQFSLKINSLQPEDFGTYYCQHHFGSPLTFGAGTTLELKR
Kd [1]: 1.69 nM

B2: CPA.9.547.13 (antibody, V domains shown)
VH: EVQLVESGGGLVQPGGSLRLSCAASGFTFSSYIMSWVRQAPGKGLEWVATISGGGTNTYYADSVKGRFTISRDNSKNTLYLQMNSLRAEDTAVYYCAKWLLSYYAMDYWGQGTLVTVSS
VL: DIQMTQSPSSLSASVGDRITITCRASQNINVWLTWYQQKPGKAPKLLIYKASKSHTGVPSRFSGSGSGTDFTLTISSLQPEDFATYYCQQGQSYPYTFGQGTKLEIKR
Kd [2]: 0.71 nM | Kd [3]: 1.67 nM

B3: CHA.9.547.7 (antibody, V domains shown)
VH: B2 VH with A49S
VL: B2 VL with I19V
Kd [4]: 1.82 nM | Kd [1]: 1.54 nM

B4: CPA.9.083 (antibody, V domains shown)
VH: EVQLVETGGGLIQPGRSLRLSCAASGFTFSSYAMHWVRQAPGKGLEWVAVISYDGTPVYYADSVKGRFTISRDNSKNTLYLQMNSLRAEDTAVYYCARDPLPLHYYGMDVWGQGTTVTVSS
VL: QSALTQPRSASGNPGQRVTISCSGSSSNMGRRPVNWYQQIPGTAPKLLIYSQNQRPSGVPDRFSGSQSGTSASLTISGLQSEDEAEYFCAVWDGDRRSLQLGGGTQLAVLG
Kd [5]: 0.7 nM

B5: CPA.9.086 (antibody, V domains shown)
VH: B4 VH with D54A, T56E, P57V, V58K
VL: B4 VL with G94D, D95I, R96G, S98V
Kd [5]: 1.32 nM

B6: CHA.7.518.1 (antibody, V domains shown)
VH: QVQLVQSGAEVKKPGASVKVSCKASGYTFTDYNINWVRQAPGQGLEWMGYIYPYIGGSGYAQKFQGRVTMTRDTSTSTVYMELSSLRSEDTAVYYCAREDKTARNAMDYWGQGTLVTVSS
VL: DIQMTQSPSSLSASVGDRVTITCRVSENIYSNLAWYQQKPGKAPKLLIYEATNLAEGVPSRFSGSGSGTDFTLTISSLQPEDFATYYCQHFWGTPYTFGQGTKLEIKR
Kd [6]: 0.35 nM

B7: PVRIG (COM701) (antibody, V domains shown)
VH: QVQLVQSGAEVKKPGASVKVSCKASGYAFTNYLIEWVRQAPGQGLEWIGVINPGSGGIYYAQKFQGRVTMTADTSTSTVYMELSSLRSEDTAVYYCARSETHDTWFAYWGQGTLVTVSS
VL: DIQMTQSPSSLSASVGDRVTITCKASQSVRIAVAWFQQKPGKAPKALIYLASTRHTGVPSRFSGSGSGTDFTLTISSVQPEDFATYYCLQHWNYPYTFGQGTKLEIKR
Kd [7]: 0.248 nM
